Measurements reported in patent US20170081400A1 (CEPHALON, published 2017).

Tests used:
[1] = target: T1, human TL1A extracellular domain with N-terminal HIS and FLAG tag (human, UniProt O95150 72-251); experiment: SPR run 3; supernatant on Protein A; TL1A 10 ug/mL; timepoint 59
T1 construct: whole entry named. ~70 kDa fraction purified by gel filtration
T1 sequence: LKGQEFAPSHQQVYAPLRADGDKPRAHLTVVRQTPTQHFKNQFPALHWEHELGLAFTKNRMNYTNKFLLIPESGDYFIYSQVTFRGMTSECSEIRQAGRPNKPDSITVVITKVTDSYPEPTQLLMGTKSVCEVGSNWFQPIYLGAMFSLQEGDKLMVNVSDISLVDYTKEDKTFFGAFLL
Source text: (§1) 1.5. Antibody expression and antigen binding as determined by SPR. Using a CM5 sensor chip (GE Healthcare) Protein A (Pierce) was coupled to the chip surface using an amine coupling kit (GE Healthcare). Protein A was coupled on flow cell 1 and 2 (or alternatively 3 and 4) using a BIACORE® T200. […] The amount of supernatant or purified protein (as well as the concentration) injected during the capture stage varied between runs and is specified in the header of the Tables 3-11. At the end of injection of the supernatant or purified antibody the change in response units was measured. This value was reported as Capture Level in Tables 3-11. […] The response units were measured prior to the end of the dissociation phase. […] The sensorgrams were double referenced (flow cell 2 is subtracted from flow cell 1 and a buffer blank). As there were a large number of antibody variants to screen, these were screened across different runs (Tables 3-11). […] A summary of the conditions used in each run is below:
(§2) 2.1. […] In some experiment the antibodies were purified using Protein A chromatography (See 1.4) and purified antibodies were used in BIACORE® (GE Healthcare) experiments.

[2] = target: T1, human TL1A extracellular domain with …; experiment: SPR run 3; supernatant on Protein A; TL1A 10 ug/mL; timepoint 590
Source text: as §1, §2

B1: 320-271 (antibody, human IgG1, name in Kabat numbering, V domains shown)
VH: QVQLVQSGAEVKKPGASVKVSCKASGYTFTSYDINWVRQAPGQGLEWMGWLNPNSGNTGYAQKFQGRVTMTADRSTSTAYMELSSLRSEDTAVYYCAREVPETAAFEYWGQGTLVTVSS
VL: QSVLTQPPSVSGAPGQRVTISCTSSSSDIGAHLGVHWYQQLPGTAPKLLIEGYYNRPSGVPDRFSGSKSGTSASLTITGLLPEDEGDYYCQSYDGTLSALFGGGTKLTVLG
notes: human IgG1, lambda
[1]
  TL1A Binding Level (Early): 106 RU
[2]
  TL1A Binding Level (Late): 30 RU

B2: 320-295 (antibody, human IgG1, name in Kabat numbering, V domains shown)
VH: QVQLVQSGAEVKKPGASVKVSCKASGYTFTSYDINWVRQAPGQGLEWMGWLNPNSGNTGYAQKFQGRVTMTADRSTSTAYMELSSLRSEDTAVYYCAREVPETAAFEYWGQGTLVTVSS
VL: QSVLTQPPSVSGAPGQRVTISCTSSSSDIGAGLGQHWYQQLPGTAPKLLIEGYYNRPSGVPDRFSGSKSGTSASLTITGLLPEDEGDYYCQSYDGTLSALFGGGTKLTVLG
notes: human IgG1, lambda
[1]
  TL1A Binding Level (Early): 109 RU
[2]
  TL1A Binding Level (Late): 94 RU

B3: 320-304 (antibody, human IgG1, name in Kabat numbering, V domains shown)
VH: QVQLVQSGAEVKKPGASVKVSCKASGYTFTSYDINWVRQAPGQGLEWMGWLNPNSGNTGYAQKFQGRVTMTADRSTSTAYMELSSLRSEDTAVYYCAREVPETAAFEYWGQGTLVTVSS
VL: QSVLTQPPSVSGAPGQRVTISCTSSSSDIGAGLGVQWYQQLPGTAPKLLIEGYYNRPSGVPDRFSGSKSGTSASLTITGLLPEDEGDYYCQSYDGTLSALFGGGTKLTVLG
notes: human IgG1, lambda
[1]
  TL1A Binding Level (Early): 103 RU
[2]
  TL1A Binding Level (Late): 82 RU

B4: 320-293 (antibody, human IgG1, name in Kabat numbering, V domains shown)
VH: QVQLVQSGAEVKKPGASVKVSCKASGYTFTSYDINWVRQAPGQGLEWMGWLNPNSGNTGYAQKFQGRVTMTADRSTSTAYMELSSLRSEDTAVYYCAREVPETAAFEYWGQGTLVTVSS
VL: QSVLTQPPSVSGAPGQRVTISCTSSSSDIGAGLGAHWYQQLPGTAPKLLIEGYYNRPSGVPDRFSGSKSGTSASLTITGLLPEDEGDYYCQSYDGTLSALFGGGTKLTVLG
notes: human IgG1, lambda
[1]
  TL1A Binding Level (Early): 104 RU
[2]
  TL1A Binding Level (Late): 86 RU

B5: 320-275 (antibody, human IgG1, name in Kabat numbering, V domains shown)
VH: QVQLVQSGAEVKKPGASVKVSCKASGYTFTSYDINWVRQAPGQGLEWMGWLNPNSGNTGYAQKFQGRVTMTADRSTSTAYMELSSLRSEDTAVYYCAREVPETAAFEYWGQGTLVTVSS
VL: QSVLTQPPSVSGAPGQRVTISCTSSSSDIGAYLGVHWYQQLPGTAPKLLIEGYYNRPSGVPDRFSGSKSGTSASLTITGLLPEDEGDYYCQSYDGTLSALFGGGTKLTVLG
notes: human IgG1, lambda
[1]
  TL1A Binding Level (Early): 44 RU
[2]
  TL1A Binding Level (Late): 10 RU

B6: 320-298 (antibody, human IgG1, name in Kabat numbering, V domains shown)
VH: QVQLVQSGAEVKKPGASVKVSCKASGYTFTSYDINWVRQAPGQGLEWMGWLNPNSGNTGYAQKFQGRVTMTADRSTSTAYMELSSLRSEDTAVYYCAREVPETAAFEYWGQGTLVTVSS
VL: QSVLTQPPSVSGAPGQRVTISCTSSSSDIGAGLGKHWYQQLPGTAPKLLIEGYYNRPSGVPDRFSGSKSGTSASLTITGLLPEDEGDYYCQSYDGTLSALFGGGTKLTVLG
notes: human IgG1, lambda
[1]
  TL1A Binding Level (Early): 114 RU
[2]
  TL1A Binding Level (Late): 100 RU

B7: 320-299 (antibody, human IgG1, name in Kabat numbering, V domains shown)
VH: QVQLVQSGAEVKKPGASVKVSCKASGYTFTSYDINWVRQAPGQGLEWMGWLNPNSGNTGYAQKFQGRVTMTADRSTSTAYMELSSLRSEDTAVYYCAREVPETAAFEYWGQGTLVTVSS
VL: QSVLTQPPSVSGAPGQRVTISCTSSSSDIGAGLGLHWYQQLPGTAPKLLIEGYYNRPSGVPDRFSGSKSGTSASLTITGLLPEDEGDYYCQSYDGTLSALFGGGTKLTVLG
notes: human IgG1, lambda
[1]
  TL1A Binding Level (Early): 51 RU
[2]
  TL1A Binding Level (Late): 13 RU

B8: 320-306 (antibody, human IgG1, name in Kabat numbering, V domains shown)
VH: QVQLVQSGAEVKKPGASVKVSCKASGYTFTSYDINWVRQAPGQGLEWMGWLNPNSGNTGYAQKFQGRVTMTADRSTSTAYMELSSLRSEDTAVYYCAREVPETAAFEYWGQGTLVTVSS
VL: QSVLTQPPSVSGAPGQRVTISCTSSSSDIGAGLGVKWYQQLPGTAPKLLIEGYYNRPSGVPDRFSGSKSGTSASLTITGLLPEDEGDYYCQSYDGTLSALFGGGTKLTVLG
notes: human IgG1, lambda
[1]
  TL1A Binding Level (Early): 147 RU
[2]
  TL1A Binding Level (Late): 133 RU

B9: 320-294 (antibody, human IgG1, name in Kabat numbering, V domains shown)
VH: QVQLVQSGAEVKKPGASVKVSCKASGYTFTSYDINWVRQAPGQGLEWMGWLNPNSGNTGYAQKFQGRVTMTADRSTSTAYMELSSLRSEDTAVYYCAREVPETAAFEYWGQGTLVTVSS
VL: QSVLTQPPSVSGAPGQRVTISCTSSSSDIGAGLGSHWYQQLPGTAPKLLIEGYYNRPSGVPDRFSGSKSGTSASLTITGLLPEDEGDYYCQSYDGTLSALFGGGTKLTVLG
notes: human IgG1, lambda
[1]
  TL1A Binding Level (Early): 79 RU
[2]
  TL1A Binding Level (Late): 61 RU

B10: 320-305 (antibody, human IgG1, name in Kabat numbering, V domains shown)
VH: QVQLVQSGAEVKKPGASVKVSCKASGYTFTSYDINWVRQAPGQGLEWMGWLNPNSGNTGYAQKFQGRVTMTADRSTSTAYMELSSLRSEDTAVYYCAREVPETAAFEYWGQGTLVTVSS
VL: QSVLTQPPSVSGAPGQRVTISCTSSSSDIGAGLGVDWYQQLPGTAPKLLIEGYYNRPSGVPDRFSGSKSGTSASLTITGLLPEDEGDYYCQSYDGTLSALFGGGTKLTVLG
notes: human IgG1, lambda
[1]
  TL1A Binding Level (Early): 34 RU
[2]
  TL1A Binding Level (Late): 10 RU

B11: 320-279 (antibody, human IgG1, name in Kabat numbering, V domains shown)
VH: QVQLVQSGAEVKKPGASVKVSCKASGYTFTSYDINWVRQAPGQGLEWMGWLNPNSGNTGYAQKFQGRVTMTADRSTSTAYMELSSLRSEDTAVYYCAREVPETAAFEYWGQGTLVTVSS
VL: QSVLTQPPSVSGAPGQRVTISCTSSSSDIGAGDGVHWYQQLPGTAPKLLIEGYYNRPSGVPDRFSGSKSGTSASLTITGLLPEDEGDYYCQSYDGTLSALFGGGTKLTVLG
notes: human IgG1, lambda
[1]
  TL1A Binding Level (Early): 144 RU
[2]
  TL1A Binding Level (Late): 128 RU

B12: 320-296 (antibody, human IgG1, name in Kabat numbering, V domains shown)
VH: QVQLVQSGAEVKKPGASVKVSCKASGYTFTSYDINWVRQAPGQGLEWMGWLNPNSGNTGYAQKFQGRVTMTADRSTSTAYMELSSLRSEDTAVYYCAREVPETAAFEYWGQGTLVTVSS
VL: QSVLTQPPSVSGAPGQRVTISCTSSSSDIGAGLGDHWYQQLPGTAPKLLIEGYYNRPSGVPDRFSGSKSGTSASLTITGLLPEDEGDYYCQSYDGTLSALFGGGTKLTVLG
notes: human IgG1, lambda
[1]
  TL1A Binding Level (Early): 118 RU
[2]
  TL1A Binding Level (Late): 104 RU

B13: 320-292 (antibody, human IgG1, name in Kabat numbering, V domains shown)
VH: QVQLVQSGAEVKKPGASVKVSCKASGYTFTSYDINWVRQAPGQGLEWMGWLNPNSGNTGYAQKFQGRVTMTADRSTSTAYMELSSLRSEDTAVYYCAREVPETAAFEYWGQGTLVTVSS
VL: QSVLTQPPSVSGAPGQRVTISCTSSSSDIGAGLYVHWYQQLPGTAPKLLIEGYYNRPSGVPDRFSGSKSGTSASLTITGLLPEDEGDYYCQSYDGTLSALFGGGTKLTVLG
notes: human IgG1, lambda
[1]
  TL1A Binding Level (Early): 111 RU
[2]
  TL1A Binding Level (Late): 94 RU

B14: 320-282 (antibody, human IgG1, name in Kabat numbering, V domains shown)
VH: QVQLVQSGAEVKKPGASVKVSCKASGYTFTSYDINWVRQAPGQGLEWMGWLNPNSGNTGYAQKFQGRVTMTADRSTSTAYMELSSLRSEDTAVYYCAREVPETAAFEYWGQGTLVTVSS
VL: QSVLTQPPSVSGAPGQRVTISCTSSSSDIGAGWGVHWYQQLPGTAPKLLIEGYYNRPSGVPDRFSGSKSGTSASLTITGLLPEDEGDYYCQSYDGTLSALFGGGTKLTVLG
notes: human IgG1, lambda
[1]
  TL1A Binding Level (Early): 75 RU
[2]
  TL1A Binding Level (Late): 16 RU

B15: 320-276 (antibody, human IgG1, name in Kabat numbering, V domains shown)
VH: QVQLVQSGAEVKKPGASVKVSCKASGYTFTSYDINWVRQAPGQGLEWMGWLNPNSGNTGYAQKFQGRVTMTADRSTSTAYMELSSLRSEDTAVYYCAREVPETAAFEYWGQGTLVTVSS
VL: QSVLTQPPSVSGAPGQRVTISCTSSSSDIGAGAGVHWYQQLPGTAPKLLIEGYYNRPSGVPDRFSGSKSGTSASLTITGLLPEDEGDYYCQSYDGTLSALFGGGTKLTVLG
notes: human IgG1, lambda
[1]
  TL1A Binding Level (Early): 244 RU
[2]
  TL1A Binding Level (Late): 215 RU

B16: 320-281 (antibody, human IgG1, name in Kabat numbering, V domains shown)
VH: QVQLVQSGAEVKKPGASVKVSCKASGYTFTSYDINWVRQAPGQGLEWMGWLNPNSGNTGYAQKFQGRVTMTADRSTSTAYMELSSLRSEDTAVYYCAREVPETAAFEYWGQGTLVTVSS
VL: QSVLTQPPSVSGAPGQRVTISCTSSSSDIGAGKGVHWYQQLPGTAPKLLIEGYYNRPSGVPDRFSGSKSGTSASLTITGLLPEDEGDYYCQSYDGTLSALFGGGTKLTVLG
notes: human IgG1, lambda
[1]
  TL1A Binding Level (Early): 22 RU
[2]
  TL1A Binding Level (Late): 6 RU

B17: 320-303 (antibody, human IgG1, name in Kabat numbering, V domains shown)
VH: QVQLVQSGAEVKKPGASVKVSCKASGYTFTSYDINWVRQAPGQGLEWMGWLNPNSGNTGYAQKFQGRVTMTADRSTSTAYMELSSLRSEDTAVYYCAREVPETAAFEYWGQGTLVTVSS
VL: QSVLTQPPSVSGAPGQRVTISCTSSSSDIGAGLGVSWYQQLPGTAPKLLIEGYYNRPSGVPDRFSGSKSGTSASLTITGLLPEDEGDYYCQSYDGTLSALFGGGTKLTVLG
notes: human IgG1, lambda
[1]
  TL1A Binding Level (Early): 71 RU
[2]
  TL1A Binding Level (Late): 32 RU
